Reference: PMC6100724, “Proteome‐wide analysis of phospho‐regulated PDZ domain interactions” (Molecular Systems Biology, 2018)

B1: Flag‐tagged RPS6KA1: Flag‐tagged full-length wild-type RPS6KA1 expressed in HEK293 cells (protein, UniProt Q15418 1-735, looked up)
chain: MPLAQLKEPWPLMELVPLDPENGQTSGEEAGLQPSKDEGVLKEISITHHVKAGSEKADPSHFELLKVLGQGSFGKVFLVRKVTRPDSGHLYAMKVLKKATLKVRDRVRTKMERDILADVNHPFVVKLHYAFQTEGKLYLILDFLRGGDLFTRLSKEVMFTEEDVKFYLAELALGLDHLHSLGIIYRDLKPENILLDEEGHIKLTDFGLSKEAIDHEKKAYSFCGTVEYMAPEVVNRQGHSHSADWWSYGVLMFEMLTGSLPFQGKDRKETMTLILKAKLGMPQFLSTEAQSLLRALFKRNPANRLGSGPDGAEEIKRHVFYSTIDWNKLYRREIKPPFKPAVAQPDDTFYFDTEFTSRTPKDSPGIPPSAGAHQLFRGFSFVATGLMEDDGKPRAPQAPLHSVVQQLHGKNLVFSDGYVVKETIGVGSYSECKRCVHKATNMEYAVKVIDKSKRDPSEEIEILLRYGQHPNIITLKDVYDDGKHVYLVTELMRGGELLDKILRQKFFSEREASFVLHTIGKTVEYLHSQGVVHRDLKPSNILYVDESGNPECLRICDFGFAKQLRAENGLLMTPCYTANFVAPEVLKRQGYDEGCDIWSLGILLYTMLAGYTPFANGPSDTPEEILTRIGSGKFTLSGGNWNTVSETAKDLVSKMLHVDPHQRLTAKQVLQHPWVTQKDKLPQSQLSHQDLQLVKGAMAATYSALNSSKPTPQLKPIESSILAQRRVRKLPSTTL
modifications: full-length Flag tag
notes: Flag‐tagged full-length wild-type RPS6KA1 expressed in HEK293 cells
B2: RPS6KA2 S730E: Flag‐tagged full-length RPS6KA2 phosphomimetic mutant expressed in HEK293 cells (protein)
chain: MDLSMKKFAVRRFFSVYLRRKSRSKSSSLSRLEEEGVVKEIDISHHVKEGFEKADPSQFELLKVLGQGSYGKVFLVRKVKGSDAGQLYAMKVLKKATLKVRDRVRSKMERDILAEVNHPFIVKLHYAFQTEGKLYLILDFLRGGDLFTRLSKEVMFTEEDVKFYLAELALALDHLHSLGIIYRDLKPENILLDEEGHIKITDFGLSKEAIDHDKRAYSFCGTIEYMAPEVVNRRGHTQSADWWSFGVLMFEMLTGSLPFQGKDRKETMALILKAKLGMPQFLSGEAQSLLRALFKRNPCNRLGAGIDGVEEIKRHPFFVTIDWNTLYRKEIKPPFKPAVGRPEDTFHFDPEFTARTPTDSPGVPPSANAHHLFRGFSFVASSLIQEPSQQDLHKVPVHPIVQQLHGNNIHFTDGYEIKEDIGVGSYSVCKRCVHKATDTEYAVKIIDKSKRDPSEEIEILLRYGQHPNIITLKDVYDDGKFVYLVMELMRGGELLDRILRQRYFSEREASDVLCTITKTMDYLHSQGVVHRDLKPSNILYRDESGSPESIRVCDFGFAKQLRAGNGLLMTPCYTANFVAPEVLKRQGYDAACDIWSLGILLYTMLAGFTPFANGPDDTPEEILARIGSGKYALSGGNWDSISDAAKDVVSKMLHVDPHQRLTAMQVLKHPWVVNREYLSPNQLSRQDVHLVKGAMAATYFALNRTPQAPRLEPVLSSNLAQRRGMKRLTETRL
modifications: left off: 3xFlag, end not stated, kept
notes: Flag‐tagged full-length RPS6KA2 phosphomimetic mutant expressed in HEK293 cells

What was measured:
[1] = tested on: GST‐tagged Scribble PDZ1; experiment: GST-pulldown from HEK293 lysates with GST-tagged Scribble PDZ1; type: binding, human; conditions: Flag‐tagged full-length protein over-expressed in HEK293 cells; anti‐Flag detection
Text: (§1) pDONR223‐RPS6KA2 (Johannessen et al, 2010) was a gift from William Hahn & David Root (Addgene plasmid # 23530). The gene was PCR‐amplified introducing HindIII and EcoRI restriction sites along with the C‐terminal phosphomimetic (S730E) or phosphoinhibiting (S730A) mutations, or the PDZbm deletion (T731‐L733). pKH3‐human RSK1 was a gift from John Blenis (Addgene plasmid # 13841; Richards et al, 2001). The gene was PCR‐amplified introducing HindIII and EcoRI restriction sites, and a and PDZbm deletion (T733‐L735) was generated. The genes (wild type and mutants) were cloned into 3xFlag CMV‐10 vector and subjected to Sanger sequencing. […]
(§2) The plasmids encoding 3xFlag RPS6KA2 wild type and mutants thereof, 3xFlag RPS6KA1 and mutants thereof, and GFP‐tagged full‐length human Scribble (Navarro et al, 2005) were Midipreped using PureLink HiPure Plasmid Midiprep Kit (Invitrogen). […] The membranes were immunoblotted with anti‐Flag (ab1162; Abcam), anti‐GFP (ab6556; Abcam), and anti‐actin (ab1801; Abcam) primary antibodies followed by HRP‐conjugated anti rabbit secondary antibody (Life technologies) and detected with Amersham ECL Western Blotting Detection Reagent (GE Healthcare), and exposed to high‐performance chemiluminescence film (Amersham Hyperfilm ECL; GE Healthcare) for 30–180 s and developed and fixed using GBX developer and fixer (Carestream Dental).

[2] = tested on: GFP‐tagged full‐length Scribble; experiment: Co-immunoprecipitation in HEK293 cells; type: binding, human; conditions: transient expression in HEK293 cells; anti‐Flag beads; anti‐Flag and anti‐GFP detection
Text: as §1, §2

Molecule | GST‐pulldown with GST‐tagged Scribble PDZ1 [1] | co‐IP with GFP‐tagged full‐length Scribble [2]
B1 | interaction was further confirmed | –
B2 | confirmed an interaction | strong co‐IP
